Results on 1 molecule are retold here after patent publication US20070254830A1 (UNIVERSITY OF TOKYO, published 2007).

The target in this experiment is T1, Myc/His-tagged C20orf20 (Homo sapiens (Human), UniProt Q9NV56 1-204).
T1 construct: Expressed in transfected COS7, SW480, HEK293 or HEK293F cells from pcDNA3.1Myc/His-C20orf20; also called myc-tagged C20orf20; pcDNA3.1Myc/His-C20orf20; not shown: Myc/His tag from the pcDNA3.1Myc/His vector
Nature of the experiment: reciprocal co-immunoprecipitation (anti-HA IP / anti-myc blot and anti-myc IP / anti-HA blot) from co-transfected COS7 cells. On the procedure: The entire coding region of p120 was amplified by RT-PCR and cloned into pCAGGS-HA vector. The primer sequences used for the amplification were 5′-[…]-3′ (SEQ ID NO.5) and 5′-[…]-3′ (SEQ ID NO.6). We transfected COS7 cells with pcDNA3.1Myc/His-C20orf20, pCAGGS-HA-p120 or their combination, and performed immunoprecipitation assay using anti-Myc or anti-HA antibody. Cells were washed with PBS and lysed in TNE buffer containing 150 mM NaCl, 0.5% NP40, 10 mM Tris-HCl (pH7.8), supplemented with a Protease Inhibitor Cocktail 3 (Roche). In a typical immunoprecipitation reaction, 400 μg of whole-cell extract was incubated with 1 μg of anti-Myc (Santa Cruz) or anti-HA antibody (Roche), and 20 μl of protein G Sepharose beads (Zymed) at 4° C. for 2 hr. Beads were washed four times in 1 ml of TNE buffer and proteins bound to the beads were eluted by boiling in Laemmli sample buffer. The precipitated protein was separated by SDS-PAGE and immunoblot analysis was carried out using with either rat anti-HA antibody or mouse anti-Myc antibody, respectively.

T1 sequence (Q9NV56 whole entry): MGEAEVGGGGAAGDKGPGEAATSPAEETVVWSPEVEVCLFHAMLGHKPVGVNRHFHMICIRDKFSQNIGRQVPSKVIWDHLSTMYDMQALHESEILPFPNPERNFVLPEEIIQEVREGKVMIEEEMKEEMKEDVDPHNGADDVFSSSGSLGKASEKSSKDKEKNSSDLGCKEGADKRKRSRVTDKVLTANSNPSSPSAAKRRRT

B1: HA-tagged p120 (other)
chain: MRSGDQNWVSVSRAIKPFAEPGRPPDWFSQKHCASQYSELLETTETPKRKRGEKGEVVETVEDVIVRKLTAERVEELKKVIKETQERYRRLKRDAELIQAGHMDSRLDELCNDIATKKKLEEEEAEVKRKATDAAYQARQAVKTPPRRLPTVMVRSPIDSASPGGDYPLGDLTPTTMEEATSGVTPGTLPSTPVTSFPGIPDTLPPGSAPLEAPMTPVTDDSPQKKMLGQKATPPPSPLLSELLKKGSLLPTSPRLVNESEMAVASGHLNSTGVLLEVGGVLPMIHGGEIQQTPNTVAASPAASGAPTLSRLLEAGPTQFTTPLASFTTVASEPPVKLVPPPVESVSHATIVMMPALPAPSSAPAVSTTESVAPVSQPDNCVPMEAVGDPHTVTVSMDSSEISMIINSIKEECFRSGVAEAPVGSKAPSIDGKEELDLAEKMDIAVSYTGEELDFETVGDIIAIIEDKVDDHPEVLDVAAVEAALSFCEENDDPQSLPGPWEHPIQQERDKPVPLPAPEMTVKQERLDFEETENKGIHELVDIREPSAEIKVEPAEPEPVISGAEIVAGVVPATSMEPPELRSQDLDEELGSTAAGEIVEADVAIGKGDETPLTNVKTEASPESMLSPSHGSNPIEDPLEAETQHKFEMSDSLKEESGTIFGSQIKDAPGEDEEEDGVSEAASLEEPKEEDQGEGYLSEMDNEPPVSESDDGFSIHNATLQSHTLADSIPSSPASSQFSVCSEDQEAIQAQKIWKKAIMLVWRAAANHRYANVFLQPVTDDIAPGYHSIVQRPMDLSTIKKNIENGLIRSTAEFQRDIMLMFQNAVMYNSSDHDVYHMAVEMQRDVLEQIQQFLATQLIMQTSESGISAKSLRGRDSTRKQDASEKDSVPMGSPAFLLSLFDGGTRGRRCAIEADMKMKK
notes: expressed in transfected COS7, SW480, HEK293 or HEK293F cells; also called SMAP; not shown: HA tag from the pCAGGS-HA vector
Regarding B1, the binding result is on record as “binds”.
